Laboratory results reported in US20160083466A1 (Regeneron, published 2016).

T1: monkey IL-25 expressed with a C-terminal myc-myc-hexahistidine tag (M. fascicularis (cynomolgus monkey))
T1 construct: also called Monkey IL-25-MMH; MfIL-25-MMH
T1 chain: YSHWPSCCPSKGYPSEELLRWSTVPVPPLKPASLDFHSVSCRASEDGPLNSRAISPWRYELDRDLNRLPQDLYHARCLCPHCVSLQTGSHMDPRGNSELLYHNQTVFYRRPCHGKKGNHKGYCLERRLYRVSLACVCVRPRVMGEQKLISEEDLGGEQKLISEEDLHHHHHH

T2: mouse IL-25 expressed with a C-terminal myc-myc-hexahistidine tag (mouse)
T2 construct: also called Mouse IL-25-MMH; mIL-25-MMH
T2 chain: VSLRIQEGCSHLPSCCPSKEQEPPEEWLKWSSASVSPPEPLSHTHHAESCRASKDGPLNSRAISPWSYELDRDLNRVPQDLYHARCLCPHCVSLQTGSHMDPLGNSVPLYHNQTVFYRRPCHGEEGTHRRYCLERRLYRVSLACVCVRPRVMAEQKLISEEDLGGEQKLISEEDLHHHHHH

T3: human IL-25 expressed with a C-terminal myc-myc-hexahistidine tag (human)
T3 chain: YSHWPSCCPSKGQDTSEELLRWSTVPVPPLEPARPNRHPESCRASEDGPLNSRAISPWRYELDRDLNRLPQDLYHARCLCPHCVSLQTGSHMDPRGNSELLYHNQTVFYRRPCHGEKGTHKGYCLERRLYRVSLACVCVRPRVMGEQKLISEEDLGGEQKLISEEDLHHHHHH

T4: rat IL-25 expressed with a C-terminal myc-myc-hexahistidine tag (rat)
T4 construct: also called Rat IL-25-MMH
T4 chain: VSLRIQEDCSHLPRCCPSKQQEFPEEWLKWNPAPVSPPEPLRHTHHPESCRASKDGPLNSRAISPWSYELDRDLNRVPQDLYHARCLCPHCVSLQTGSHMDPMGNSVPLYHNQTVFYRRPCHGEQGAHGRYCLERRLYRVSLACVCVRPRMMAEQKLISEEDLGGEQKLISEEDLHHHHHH

T5: human IL-25 expressed with a C-terminal myc-myc-hexahistidine tag (human)
T5 construct: also called human IL-25-MMH; hIL-25-MMH
T5 chain: T3 chain

T6: rat IL-25 expressed with a C-terminal myc-myc-hexahistidine tag (rat)
T6 construct: also called rat IL-25-MMH
T6 chain: T4 chain

T7: mouse IL-25 expressed with a C-terminal myc-myc-hexahistidine tag (mouse)
T7 construct: also called mouse IL-25-MMH; mIL-25-MMH
T7 chain: T2 chain

T8: monkey IL-25 expressed with a C-terminal myc-myc-hexahistidine tag (M. fascicularis (cynomolgus monkey))
T8 construct: also called monkey IL-25-MMH; MfIL-25-MMH
T8 chain: T1 chain

B1: H4H10900P (antibody, human IgG4, V domains shown)
VH: QVQLQESGPGLVRPSETLSLICTVSGGSINSYYWSWIRQPPGKGLEWIGYIYYSGSTNYNPSLKSRVTISGDTSKNQFSLKLSSVTAADTAVYYCARGVIWNYELREFDYWGQGTLVTVSS
VL: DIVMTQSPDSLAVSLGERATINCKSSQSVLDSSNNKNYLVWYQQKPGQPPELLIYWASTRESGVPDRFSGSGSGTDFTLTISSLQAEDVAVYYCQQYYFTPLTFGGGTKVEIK
notes: H4H prefix = human IgG4 Fc
B2: H4H10903P (antibody, human IgG4, V domains shown)
VH: QVQLQESGPGLVKPSETLSLTCTVSGGSINSYSWTWIRQPPGKGLEWIGNIYNSENTNYNPSLKSRVTISVDTSKSQVSLKLNSVTAADTAVYYCARTYNWNYEIGAMGVWGQGTTVTVSS
VL: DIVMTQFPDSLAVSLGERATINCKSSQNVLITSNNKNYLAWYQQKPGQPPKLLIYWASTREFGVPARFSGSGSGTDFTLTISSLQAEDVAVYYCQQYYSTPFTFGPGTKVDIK
B3: H4H10863P (antibody, human IgG4, V domains shown)
VH: QVQLVQSGAEVKKPGASVKVSCKASGYTFSSYGISWVRQAPGQGLEWMGWISAYNDNTQYAQKFQGRVTMTTDTSTSTAYMELRSLRSDDTAVYYCARVPLQWFGESFDHWGQGTLVTVSS
VL: DIQMTQSPSSLSASVGDRVTITCRASQDINNYLNWFQQKPGKAPKLLIFSTSSLQSGVPSRFSGSGSGTDFTLTISSLQSEDFATYYCQQTFITPLTFGGGTKVEIK
notes: H4H prefix = human IgG4 Fc
B4: H4H10897P (antibody, human IgG4, V domains shown)
VH: QVQLQESGPGLVKPSETLSLTCTVSGGSISDYYWSWIRQPPGKGLEWIGHIYYSGSTNHNPSLKSRVAISVDTSKNQFSLRLYSVTAADTAVYYCARDGYSSSSGFYYFGMDVWGQGTTVTVSS
VL: DIQLTQSPSFLSASVGDRVTITCWASQDINSYLAWYQQKPGKAPKLLIFAASTLQGGVPSRFSGSGSGTEFTLTISSLQPEDFATYYCQHLSSFPPTFGQGTRLEIK
notes: H4H prefix = human IgG4 Fc
B5: H4H10906P (antibody, human IgG4, V domains shown)
VH: QVQLQESGPGLVKPSETLSLTCTVSGGSISSYYWSWIRQPPGKGLEWIGFIYYSGSTNYNPSLKSRVTISVDTSKNQFSLKLSSVTAADTAVYYCARHDSDYELYGMDVWGQGTTVTVSS
VL: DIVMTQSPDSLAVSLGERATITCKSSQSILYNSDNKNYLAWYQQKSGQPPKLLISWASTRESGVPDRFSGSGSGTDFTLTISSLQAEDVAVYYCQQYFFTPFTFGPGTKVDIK
B6: H4H10864P (antibody, human IgG4, V domains shown)
VH: QVQLQESGPGLVKPSETLSLTCTVSGGSISNYFWSWIRQPPGKGLEWIGFNYNSGSTNYNPSLKSRVTISVDTSKNQFSLKLSSVTAADTAVYYCARGYNWNYEIAWFDPWGQGTLVTVSS
VL: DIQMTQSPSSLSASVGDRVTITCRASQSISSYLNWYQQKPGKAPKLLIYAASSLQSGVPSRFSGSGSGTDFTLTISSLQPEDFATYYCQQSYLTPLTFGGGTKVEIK
notes: H4H prefix = human IgG4 Fc

Experiments:
[1] = target: T1, monkey IL-25 expressed with a …; assay: SPR Biacore, antibody captured, 37C;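 for 100 nM Monkey IL-25-MMH Bound (RU): biacore 4000 surface plasmon resonance biosensor measuring binding of IL-25-MMH to purified anti-IL-25 antibodies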;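 for 100 nM Mouse IL-25-MMH Bound (RU): Real-time sensorgrams of IL-25-MMH binding to purified anti-IL-25 antibodies, rate constants obtained by fitting a 1:1 binding model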
Experimental: (§1) Equilibrium dissociation constants (KD values) for IL-25 binding to purified anti-IL-25 antibodies were determined using a real-time surface plasmon resonance biosensor assay on a Biacore 4000 instrument (GE Healthcare). […] All the IL-25 reagents were expressed with a C-terminal myc-myc-hexahistidine tag (referred to herein as “IL-25-MMH”). […] Kinetic association (kₐ) and dissociation (kd) rate constants were determined by fitting the real-time sensorgrams to a 1:1 binding model using Scrubber 2.0c curve fitting software.

[2] = target: T2, mouse IL-25 expressed with a C-terminal …; assay: SPR Biacore, antibody captured, 25C;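 for 100 nM Rat IL-25-MMH Bound (RU): purified anti-IL-25 antibodies were tested by real-time surface plasmon resonance on a Biacore 4000, with rate constants obtained from sensorgram fits to a 1:1 binding model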
Experimental: as §1

[3] = target: T3, human IL-25 expressed with a C-terminal …; assay: cell-based or functional assay
[4] = target: T1, monkey IL-25 expressed with a …; assay: cell-based or functional assay
[5] = target: T3, human IL-25 expressed with a C-terminal …; assay: cell-based or functional assay
[6] = target: T3, human IL-25 expressed with a C-terminal …; assay: BLI Octet, hIL-25-MMH captured on anti-Penta-His sensor, 25C
Experimental: Binding competition between anti-IL-25 monoclonal antibodies was determined using a real time, label-free bio-layer interferometry assay on an Octet QK384 biosensor (Pall ForteBio Corp.).
The biosensors were washed in HBST kinetics buffer in between every step of the experiment. The real-time binding response was monitored during the course of the experiment and the binding response at the end of every step was recorded.

[7] = target: T3, human IL-25 expressed with a C-terminal …; assay: competition ELISA, 2 nM hIL-25-MMH binding to coated hIL-17RB-hFc; (*) below theoretical bottom of the assay
Experimental: (§2) Data analysis was performed using a sigmoidal dose-response model within Prism™ software (GraphPad). […] The absorbance values of the wells containing the highest concentration for each antibody were used to determine the percent maximum blockade.

[8] = target: T4, rat IL-25 expressed with a C-terminal …; assay: SPR Biacore, antibody captured, 37C;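 for 100 nM Monkey IL-25-MMH Bound (RU): biacore 4000 surface plasmon resonance biosensor measuring binding of IL-25-MMH to purified anti-IL-25 antibodies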;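 for 100 nM Mouse IL-25-MMH Bound (RU): Real-time sensorgrams of IL-25-MMH binding to purified anti-IL-25 antibodies, rate constants obtained by fitting a 1:1 binding model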
Experimental: as §1

[9] = target: T4, rat IL-25 expressed with a C-terminal …; assay: SPR Biacore, antibody captured, 25C;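 for 100 nM Rat IL-25-MMH Bound (RU): purified anti-IL-25 antibodies were tested by real-time surface plasmon resonance on a Biacore 4000, with rate constants obtained from sensorgram fits to a 1:1 binding model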
Experimental: as §1

[10] = target: T2, mouse IL-25 expressed with a C-terminal …; assay: SPR Biacore, antibody captured, 37C;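 for 100 nM Monkey IL-25-MMH Bound (RU): biacore 4000 surface plasmon resonance biosensor measuring binding of IL-25-MMH to purified anti-IL-25 antibodies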;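 for 100 nM Mouse IL-25-MMH Bound (RU): Real-time sensorgrams of IL-25-MMH binding to purified anti-IL-25 antibodies, rate constants obtained by fitting a 1:1 binding model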
Experimental: as §1

[11] = target: T3, human IL-25 expressed with a C-terminal …; assay: competition ELISA, 2 nM hIL-25-MMH binding to coated hIL-17RB-hFc
Experimental: as §2

[12] = target: T5, human IL-25 expressed with a C-terminal …; assay: SPR Biacore, captured mAb, 37°C
Experimental: as §1

[13] = target: T6, rat IL-25 expressed with a C-terminal …; assay: SPR Biacore, captured mAb, 25°C and 37°C
Experimental: as §1

[14] = target: T7, mouse IL-25 expressed with a C-terminal …; assay: SPR Biacore, captured mAb, 25°C and 37°C
Experimental: as §1

[15] = target: T8, monkey IL-25 expressed with a …; assay: SPR Biacore, captured mAb, 25°C;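 for 100 nM Human IL-25-MMH Bound (RU): biacore 4000 SPR with IL-25-MMH as analyte over purified anti-IL-25 antibodies, association and dissociation rates derived from fitting sensorgrams to a 1:1 binding model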;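 for 100 nM Monkey IL-25-MMH Bound (RU): Real-time surface plasmon resonance on a Biacore 4000, with IL-25-MMH binding to purified anti-IL-25 antibodies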
Experimental: as §1

[16] = target: T5, human IL-25 expressed with a C-terminal …; assay: SPR Biacore, captured mAb, 25°C;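 for 100 nM Human IL-25-MMH Bound (RU): biacore 4000 SPR with IL-25-MMH as analyte over purified anti-IL-25 antibodies, association and dissociation rates derived from fitting sensorgrams to a 1:1 binding model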;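 for 100 nM Monkey IL-25-MMH Bound (RU): Real-time surface plasmon resonance on a Biacore 4000, with IL-25-MMH binding to purified anti-IL-25 antibodies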
Experimental: as §1

[17] = target: T2, mouse IL-25 expressed with a C-terminal …; assay: cell-based or functional assay

Row | 100 nM Monkey IL-25-MMH Bound (RU) [1] [RU] | Kd [1] [nM] | koff [1] [s⁻¹] | kon [1] [M⁻¹ s⁻¹] | t½ [1] [h] | 100 nM Mouse IL-25-MMH Bound (RU) [2] [RU] | IC50, luciferase reporter cells, 5 pM hIL-25-MMH [3] [M] | IC50, luciferase reporter cells, 12 pM MfIL-25-MMH [4] [M] | IC50 values of antibodies for blocking IL-5 release from Donor #727058-059 [5] [nM] | IC50 values of antibodies for blocking IL-5 release from Donor #727060 [5] [nM] | 50 ug/mL mAb-1 Binding (nm) [6] [nm] | IC50 [7] [nM] | 100 nM Rat IL-25-MMH Bound (RU) [8] [RU] | 100 nM Rat IL-25-MMH Bound (RU) [9] [RU] | 100 nM Mouse IL-25-MMH Bound (RU) [10] [RU] | % Maximum blocking of 200 nM antibody [11] [%] | 100 nM Human IL-25-MMH Bound (RU) [12] [RU] | Kd [12] [nM] | koff [12] [s⁻¹] | kon [12] [M⁻¹ s⁻¹] | other results | Binder
1 | 50 | 0.0244 | 7.49e-05 | 3.07e+06 | 2.57 | 0 | 3.1e-11 | 2.2e-11 | 0.0392 | 0.578 | 0.68 | 0.2 | 2 | 0 | 2 | 90 |  |  |  |  | binding result [2]: no binding (tested: 100 nM); binding result [9]: no binding (tested: 100 nM) | B1
2 |  |  |  |  |  |  |  |  |  |  |  |  |  |  |  |  | 65 | 0.0508 | 7.75e-05 | 1.53e+06 | t½ [12]: 2.48 h; binding result [13]: no binding (tested: 100 nM); binding result [14]: no binding (tested: 100 nM); 100 nM Monkey IL-25-MMH Bound (RU) [15]: 57 RU; Kd [15]: ≤ 0.00871 nM; koff [15]: ≤ 1e-05 s⁻¹; kon [15]: 1.15e+06 M⁻¹ s⁻¹; t½ [15]: 19.2 h; 100 nM Human IL-25-MMH Bound (RU) [16]: 54 RU; Kd [16]: 0.0192 nM; koff [16]: 1.73e-05 s⁻¹; kon [16]: 897000 M⁻¹ s⁻¹; t½ [16]: 11.2 h | B2
3 | 51 | 0.0685 | 8.07e-05 | 1.18e+06 | 2.38 | 22 | 6.9e-10 | 3.5e-10 |  |  | 1.13 | 0.92 | 41 | 34 | 37 | 87 |  |  |  |  | Kd [2]: 2.67 nM; koff [2]: 0.000149 s⁻¹; kon [2]: 55700 M⁻¹ s⁻¹; t½ [2]: 1.3 h; IC50, luciferase reporter cells, 10 pM mIL-25-MMH [17]: 4.3e-09 M; Kd [8]: 0.72 nM; koff [8]: 0.000341 s⁻¹; kon [8]: 474000 M⁻¹ s⁻¹; t½ [8]: 0.567 h; Kd [9]: 1.07 nM; koff [9]: 0.000164 s⁻¹; kon [9]: 153000 M⁻¹ s⁻¹; t½ [9]: 1.17 h; Kd [10]: 1.14 nM; koff [10]: 0.000153 s⁻¹; kon [10]: 134000 M⁻¹ s⁻¹; t½ [10]: 1.27 h | B3
4 | 49 | 0.189 | 0.000231 | 1.22e+06 | 0.833 | 20 | 4.6e-10 | 4e-10 |  |  | 1.12 | 0.32 | 22 | 23 | 17 | 94 |  |  |  |  | Kd [2]: 7.05 nM; koff [2]: 0.00104 s⁻¹; kon [2]: 148000 M⁻¹ s⁻¹; t½ [2]: 0.183 h; IC50, luciferase reporter cells, 10 pM mIL-25-MMH [17]: 1.5e-08 M; Kd [8]: 24.6 nM; koff [8]: 0.00601 s⁻¹; kon [8]: 245000 M⁻¹ s⁻¹; t½ [8]: 0.0317 h; Kd [9]: 2.42 nM; koff [9]: 0.000807 s⁻¹; kon [9]: 333000 M⁻¹ s⁻¹; t½ [9]: 0.233 h; Kd [10]: 36.2 nM; koff [10]: 0.00641 s⁻¹; kon [10]: 177000 M⁻¹ s⁻¹; t½ [10]: 0.03 h | B4
5 |  |  |  |  |  |  |  |  |  |  |  |  |  |  |  |  | 72 | 0.0529 | 0.000154 | 2.9e+06 | t½ [12]: 1.25 h; binding result [13]: no binding (tested: 100 nM); binding result [14]: no binding (tested: 100 nM); 100 nM Monkey IL-25-MMH Bound (RU) [15]: 61 RU; Kd [15]: 0.0141 nM; koff [15]: 2.95e-05 s⁻¹; kon [15]: 2.09e+06 M⁻¹ s⁻¹; t½ [15]: 6.52 h; 100 nM Human IL-25-MMH Bound (RU) [16]: 61 RU; Kd [16]: 0.0264 nM; koff [16]: 4.32e-05 s⁻¹; kon [16]: 1.64e+06 M⁻¹ s⁻¹; t½ [16]: 4.47 h | B5
6 | 94 | 0.0436 | 0.00019 | 4.35e+06 | 1.02 | -1 | 3.6e-11 | 2.6e-11 | 1.15 | 0.677 | 0.84 | 0.26 | 1 | -1 | 1 | 88 |  |  |  |  |  | B6
